Laboratory results taken from patent US10752675B2, “Compounds for treating the remyelination blockade in diseases associated with the expression of HERV-W envelope protein” (GENEURO S.A., priority 2012, dated 2020).
Entries after “also recorded” stand apart in the source; their conditions may differ.

System: human OPC
Assay: Expression of MBP in human OPC in primary culture stimulated by MSRV-Env, with or without GNbAC1 (immunocytochemistry)
Assay type: cell-based
Conditions: for MBP positive cells, normalized to control condition (buffer = 100%): pooled data
Protocol: Full length recombinant MSRV-Env was produced and purified by PX′Therapeutics (548 aa; 61.44 KDa) (batch 110719-1). The initial concentration was 0.6 mg/ml (9.76 μM). MSRV-Env Buffer (20 mM Trizma-HCl, pH 7.5, 150 mM NaCl, 1.5% SDS, 10 mM DTT) was provided by PX′Therapeutics. This solution was used as a negative control. GNbAC1 (Batch T96/bAC1/B1; GMP production) was produced and purified by Polymun Scientific, Vienna, Austria. The initial concentration was 10 mg/ml (68.03 μM).
Human OPC were stimulated with the different treatments either by coating solutions on the cell culture plate surface before cells seeding or by adding them in the cell culture medium after cells seeding. In any case, labtek 8-wells chamber slides (Nunc) were previously coated with poly-L-lysine (Sigma-Aldrich) overnight at 37° C.
The different treatments were diluted in PBS under a sterile laminar flow hood (Fischer Bioblock, France) and the Labtek 8 wells chambers slides (Nunc; 250 μl per well) were coated as follows: • MSRV-Env (1 μg/ml) coated for 2 hours at 37° C. • MSRV-Env Buffer (same dilution than MSRV-Env) coated for 2 hours at 37° C. • MSRV-Env+GNbAC1 A1: MSRV-Env (1 μg/ml) and GNbAC1 (7.35 μg/ml=50 nM) mixture coated for 2 hours at 37° C. • MSRV-Env+GNbAC1 A2: MSRV-Env (1 μg/ml) and GNbAC1 (29.4 μg/ml=200 nM) mixture coated for 2 hours at 37° C. • MSRV-Env+GNbAC1 B1: MSRV-Env (1 μg/ml) coated for 2 hours at 37° C., washed with PBS and subsequently coated with GNbAC1 (7.35 μg/ml=50 nM) for 1 hour at 37° C. • MSRV-Env+GNbAC1 B2: MSRV-Env (1 μg/ml) coated for 2 hours at 37° C., washed with PBS and subsequently coated with GNbAC1 (29.4 μg/ml=200 nM) for 1 hour at 37° C. • GNbAC1 A1 alone: GNbAC1 (7.35 μg/ml=50 nM) coated for 2 hours at 37° C. • GNbAC1 A2 alone: GNbAC1 (29.4 μg/ml=200 nM) coated for 2 hours at 37° C. • GNbAC1 B1 alone: PBS for 2 hours at 37° C., then coated with GNbAC1 (7.35 μg/ml=50 nM) for 1 hour at 37° C. • GNbAC1 B2 alone: PBS for 2 hours at 37° C., then coated with GNbAC1 (29.4 μg/ml=200 nM) for 1 hour at 37° C. • BSA (1 μg/ml) coated for 2 hours at 37° C. • BSA+GNbAC1 A1: BSA (1 μg/ml) and GNbAC1 (7.35 μg/ml=50 nM) mixture coated for 2 hours at 37° C. • BSA+GNbAC1 A2: BSA (1 μg/ml) and GNbAC1 (29.4 μg/ml=200 nM) mixture coated for 2 hours at 37° C. • BSA+GNbAC1 B1: BSA (1 μg/ml) coated for 2 hours at 37° C., washed with PBS and subsequently coated with GNbAC1 (7.35 μg/ml=50 nM) for 1 hour at 37° C. • BSA+GNbAC1 B2: BSA (1 μg/ml) coated for 2 hours at 37° C., washed with PBS and subsequently coated with GNbAC1 (29.4 μg/ml=200 nM) for 1 hour at 37° C. Human Oligodendrocyte Precursor Cells Culture
The vial containing the human OPC was placed in a 37° C. water bath and gently agitated by rotation until the content was completely thawed. The cells were gently resuspended with a 1 ml Gilson pipette. Then, they were diluted in complete OPCM, and seeded into the 8-wells labtek culture vessels (7000 cells/cm^2=10000 cells per well) previously coated with poly-L-lysine (0.01%, Sigma) and with (or without) the treatments described above (see 3.2.1.1) under a sterile laminar flow hood (Fischer Bioblock, France). The cultures were incubated at 37° C.; 5% CO2 until subsequent immunocytochemistry experiments. The growth medium was changed the next day to remove the residual DMSO and unattached cells in the cultures treated for 72 hours.
After 3 hours of pre-cultivation (see 3.2.1.2) of the human OPC in the 8-well labtek culture vessels, the cells were incubated at 37° C. for 24 hours or 72 hours in 8-wells labteks (250 μl/well) with the addition of the following solutions: • MSRV-Env Buffer, used as a negative control, added in complete cell culture medium • MSRV-Env added at 3 nM (0.184 μg/ml) in complete cell culture medium • MSRV-Env (3 nM)+GNbAC1 (200 nM; 29.4 μg/ml) mixture added in complete cell culture medium • GNbAC1 (200 nM) alone added in complete cell culture medium Expression of TLR4 and Myelination Markers in OPC In Vitro […]

B1: GNbAC1: recombinant humanized anti-Env IgG4 monoclonal antibody comprising the CDRs of SEQ ID No. 1 to 6 (antibody, chains of the INN, looked up, V domains shown)
VH: QVQLVQSGAEVKKPGSSVKVSCKASGYTFTDYEMHWVRQAPGQGLEWIGAVAPETGGTAYNQKFKGRATITADKSTSTAYMELSSLRSEDTAVYYCTSTVVPFAYWGQGTLVTVSS
VL: QIQLTQSPSSLSASVGDRVTITCSASSSVSYMYWYQQKPGKAPKAWIYRTSNLASGVPSRFSGSGSGTDYTLTISSLQPEDFATYYCQQYQSLPLTFGGGTKVEIK
- effect on the decrease of MBP positive cells induced by coated MSRV-Env (GNbAC1 50 nM, both protocols, 72 hours): partial effect; also recorded: partially inhibits MSRV-Env effect
- effect on the decrease of MBP positive cells induced by coated MSRV-Env (GNbAC1 200 nM, both protocols, 72 hours): complete inhibition
- effect on the inhibition of MBP expression induced by coated MSRV-Env (GNbAC1 200 nM, both protocols, 72 hours, OPC ICC 03): completely reverses
- percentage of MBP positive cells (GNbAC1-A 50 nM, coated MSRV-Env 1 μg/ml, 72 hours, OPC ICC 02): 69±2%
- MBP positive cells, normalized to control condition (buffer = 100%) (GNbAC1-A 200 nM with coated MSRV-Env): 101±2%
- percentage of MBP positive cells (GNbAC1-A 200 nM, coated MSRV-Env 1 μg/ml, 72 hours, OPC ICC 02): 73±2%
- percentage of MBP positive cells (GNbAC1-A 200 nM, coated MSRV-Env 1 μg/ml, 72 hours, OPC ICC 03): 80±2%
- percentage of MBP positive cells (GNbAC1-B 50 nM, coated MSRV-Env 1 μg/ml, 72 hours, OPC ICC 02): 68±2%
- MBP positive cells, normalized to control condition (buffer = 100%) (GNbAC1-B 200 nM with coated MSRV-Env): 97±2%
- percentage of MBP positive cells (GNbAC1-B 200 nM, coated MSRV-Env 1 μg/ml, 72 hours, OPC ICC 02): 74±2%
- percentage of MBP positive cells (GNbAC1-B 200 nM, coated MSRV-Env 1 μg/ml, 72 hours, OPC ICC 03): 75±2%
- percentage of MBP positive cells (MSRV-Env 3 nM + GNbAC1 200 nM in culture medium, 72 hours): 76±2%
- effect on the decrease of MBP expression induced by MSRV-Env in culture medium (MSRV-Env 3 nM, GNbAC1 200 nM, 72 hours): inhibits completely this effect
